B1: SEQ ID NO: 12 (peptide)
peptide: XSQGTFTSDXSKQXESRRAQEFIEWLLXGGPESGAPPPSX
modifications: Tza at 1; Tle at 10; Nle at 14; Bal at 28; Cys(VS-DO3A(Ga)) at 40; C-terminal amide

What was measured:
human glucagon receptor = human glucagon receptor (human, UniProt P47871 26-477); test: cell-based or functional assay
human GLP-1 receptor = human GLP-1 receptor (human, UniProt P43220 24-463); test: cell-based or functional assay

Molecule	EC50 hGLUC R (human glucagon receptor) [pM]	EC50 hGLP-1 R [pM] (human GLP-1 receptor)	EC50 hGLUC R [pM] (human glucagon receptor)
HSQGTFTSDYSKYLDSRRAQDFVQWLM^27-N-T-C(VS-DO3A)-NH2 (peptide)	0.7		
XSQGTFXSDLAKQXESRRAQDFIEWLLATGPESGAPPPSX (Tza at 1; Aib at 7; Nle at 14; Cys(VS-DO3A) at 40; C-terminal amide) [SEQ ID NO: 31]		1e+07	
XSQGTFXSDLSKQXESRRAKDFIEWLLATGPESGAPPPSX (Tza at 1; Aib at 7; Nle at 14; Cys(VS-DO3A) at 40; C-terminal amide) [SEQ ID NO: 51]		1e+07	
XSQGTFTSDYSKQLESRRAQEFIEWLLAGGPESGAPPPSX (Tza at 1; Cys(VS-DO3A(Ga)) at 40; C-terminal -OH) [SEQ ID NO: 80]		5130	0.7
B1		12900	0.7
XSQGTFTSDYSKQLESRRAQEFIEWLLATGPESGAPPPSX (Tza at 1; Cys(VS-DO3A(Ga)) at 40; C-terminal amide) [SEQ ID NO: 34]		18800	0.8
XSQGTFTSDTSKQLESRRAQEFIEWLLATGPESGAPPPSX (Tza at 1; Cys(VS-DO3A(Ga)) at 40; C-terminal amide) [SEQ ID NO: 48]		297000	60.1
XSQGTFTSDTSKQLESRRAQEFIEWLLATGPESGAPPPSX (Tza at 1; Cys(VS-DO3A) at 40; C-terminal amide) [SEQ ID NO: 47]		1e+07	
XSQGTFXSDLSKQXESRRAQDFIEWLLATGPESGAPPPSX (Tza at 1; Aib at 7; Nle at 14; Cys(mal-NODAGA) at 40; C-terminal amide) [SEQ ID NO: 17]		1e+07	
XSQGTFTSDYSKQLESRRAQEFIEWLLAGGPESGAPPPSX (Tza at 1; Cys(mal-NOTA(Ga)) at 40; C-terminal amide) [SEQ ID NO: 9]		4200	1
XSQGTFTSDYSKQLESRRAQEFIEWLLAGGPESGAPPPSX (Tza at 1; Cys(VS-DO3A(Ga)) at 40; C-terminal amide) [SEQ ID NO: 8]		4130	
XSQGTFTSDISKQXESRRAQEFIEWLLATGPESGAPPPSX (Tza at 1; Nle at 14; Cys(VS-DO3A(Ga)) at 40; C-terminal amide) [SEQ ID NO: 36]		65300	
XXQGTFTSDYSKQLDEQRAQEFIEWLLATGPESGAPPPSX (Tza at 1; D-Ser at 2; Cys(VS-DO3A(Ga)) at 40; C-terminal amide) [SEQ ID NO: 86]		115000	0.9
XSQGTFTSDYSKQLESRRAQEFIEWLLAGGPESGAPPPSX (Tza at 1; Cys(mal-DOTA(Ga)) at 40; C-terminal amide) [SEQ ID NO: 7]		7530	
XSQGTFTSDYSKQLESRRAQEFIEWLLAGGPESGAPPPSX (Tza at 1; Cys(mal-NODAGA(Ga)) at 40; C-terminal amide) [SEQ ID NO: 10]			0.9
XSQGTFTSDYSRQLESRRAQEFIEWLLATGPESGAPPPSX (Tza at 1; Lys(VS-DO3A(Ga)) at 40; C-terminal amide) [SEQ ID NO: 44]			0.8
XSQGTFXSDLSKQXESRRAQDFIEWLLATGPESGAPPPSX (Tza at 1; Aib at 7; Nle at 14; Cys(mal-NOTA) at 40; C-terminal amide) [SEQ ID NO: 16]		1e+07	

Reference: patent US20200262885A1 (ANTAROS MEDICAL, published 2020)
